Literature values as cited in patent publication US5624831A, “Immobilized acetylcholinesterase stabilized by a film of gelatin or albumin containing trehalose” (priority 1994, dated 1997).

Tested on: acetylcholinesterase extracted from the torpedo fish
Details: kept dry at 4° C. for longer than 7 days

B1: acetylcholinesterase extracted from the torpedo fish: acetylcholinesterase extracted from the torpedo fish (protein, UniProt P04058 22-564, looked up)
Acetylcholinesterase: DDHSELLVNTKSGKVMGTRVPVLSSHISAFLGIPFAEPPVGNMRFRRPEPKKPWSGVWNASTYPNNCQQYVDEQFPGFSGSEMWNPNREMSEDCLYLNIWVPSPRPKSTTVMVWIYGGGFYSGSSTLDVYNGKYLAYTEEVVLVSLSYRVGAFGFLALHGSQEAPGNVGLLDQRMALQWVHDNIQFFGGDPKTVTIFGESAGGASVGMHILSPGSRDLFRRAILQSGSPNCPWASVSVAEGRRRAVELGRNLNCNLNSDEELIHCLREKKPQELIDVEWNVLPFDSIFRFSFVPVIDGEFFPTSLESMLNSGNFKKTQILLGVNKDEGSFFLLYGAPGFSKDSESKISREDFMSGVKLSVPHANDLGLDAVTLQYTDWMDDNNGIKNRDGLDDIVGDHNVICPLMHFVNKYTKFGNGTYLYFFNHRASNLVWPEWMGVIHGYEIEFVFGLPLVKELNYTAEEEALSRRIMHYWATFAKTGNPNEPHSQESKWPLFTTKEQKFIDLNTEPMKVHQRLRVQMCVFWNQFLPKLLNATACDGELSS
loss of enzymatic activity (in words): looses normally all its enzymatic activity
